{
  "source": "paper doi:10.1101/2020.07.24.219303",
  "target": "ParA (pMF1.22) co-expressed with ParC from pET15b (Myxococcus fulvus 124B02 (plasmid pMF1))",
  "assay": "SDS-PAGE band identified by mass spectrometry",
  "data": [
    {"substance": "ParC (pMF1.21) co-expressed in front of ParA from pET15b (natural protein)", "values": [
      {"measurement": "stoichiometry N (ParC:ParA molar ratio)", "value": 1}
    ]}
  ]
}
